Test results published in the supplement of paper PMC10567573.

B1: NP_006221.1 (parent)
chain: CQPISFSGFGAEDDDLGGLGLGP
B2: ZBTB22 (parent)
chain: RPFDCPVCNKKFKMKHHLTEHMKT

Variants of: B1
Assay: protein stability index of a GFP-peptide fusion (GPS, HEK-293T) (PSI 1-6); higher = more stable
Details: c terminus: native

Question: For CQPISFSGFGAEDDDLGGLGLDP [G22D], which protein stability index is on record?
Answer: 2.15

Question: Which protein stability index does the source give for CQPISFSGFGAEDDDLGGLGLKP [G22K] here?
Answer: 4.15

Question: With CQPISFSGFGAEDDDLGGLGLYP [G22Y] as the variant, how does the protein stability index read?
Answer: 2.59

Question: With CQPISFSGFGAEDDDLGGLGLPP [G22P] as the variant, how does the protein stability index read?
Answer: 4.39

Question: Which protein stability index does the source give for CQPISFSGFGAEDDDLGGLGLCP [G22C] here?
Answer: 2.25

Question: With CQPISFSGFGAEDDDLGGLGLEP [G22E] as the variant, how does the protein stability index read?
Answer: 2.13

Question: Which protein stability index does the source give for CQPISFSGFGAEDDDLGGLGLFP [G22F] here?
Answer: 2.4

Question: For CQPISFSGFGAEDDDLGGLGLVP [G22V], which protein stability index is on record?
Answer: 2.11

Question: Which protein stability index does the source give for CQPISFSGFGAEDDDLGGLGLIP [G22I] here?
Answer: 2.37

Question: For CQPISFSGFGAEDDDLGGLGLRP [G22R], which protein stability index is on record?
Answer: 3.32

Question: For CQPISFSGFGAEDDDLGGLGLMP [G22M], which protein stability index is on record?
Answer: 2.32

Question: For CQPISFSGFGAEDDDLGGLGLSP [G22S], which protein stability index is on record?
Answer: 2.1

Question: For CQPISFSGFGAEDDDLGGLGLAP [G22A], which protein stability index is on record?
Answer: 2.29

Question: Which protein stability index does the source give for CQPISFSGFGAEDDDLGGLGLTP [G22T] here?
Answer: 2.22

Question: For CQPISFSGFGAEDDDLGGLGLQP [G22Q], which protein stability index is on record?
Answer: 2.27

Question: For CQPISFSGFGAEDDDLGGLGLNP [G22N], which protein stability index is on record?
Answer: 3.35

Question: Which protein stability index does the source give for CQPISFSGFGAEDDDLGGLGLWP [G22W] here?
Answer: 2.46

Question: With CQPISFSGFGAEDDDLGGLGLLP [G22L] as the variant, how does the protein stability index read?
Answer: 2.46

Question: For CQPISFSGFGAEDDDLGGLGLHP [G22H], which protein stability index is on record?
Answer: 2.8

Question: With CQPISFSGFGAEDDDLGGLTLGP [G20T] as the variant, how does the protein stability index read?
Answer: 3.68

Question: For CQPISFSGFGAEDDDLGGLCLGP [G20C], which protein stability index is on record?
Answer: 2.51

Question: For CQPISFSGFGAEDDDLGGLDLGP [G20D], which protein stability index is on record?
Answer: 2.58

Question: Which protein stability index does the source give for CQPISFSGFGAEDDDLGGLFLGP [G20F] here?
Answer: 3.81

Question: Which protein stability index does the source give for CQPISFSGFGAEDDDLGGLPLGP [G20P] here?
Answer: 3.11

Question: Which protein stability index does the source give for CQPISFSGFGAEDDDLGGLQLGP [G20Q] here?
Answer: 2.69

Question: For CQPISFSGFGAEDDDLGGLWLGP [G20W], which protein stability index is on record?
Answer: 3.19

Question: With CQPISFSGFGAEDDDLGGLMLGP [G20M] as the variant, how does the protein stability index read?
Answer: 2.77

Question: Which protein stability index does the source give for CQPISFSGFGAEDDDLGGLLLGP [G20L] here?
Answer: 3.54

Question: Which protein stability index does the source give for CQPISFSGFGAEDDDLGGLYLGP [G20Y] here?
Answer: 2.83

Question: Which protein stability index does the source give for CQPISFSGFGAEDDDLGGLVLGP [G20V] here?
Answer: 3.37

Question: For CQPISFSGFGAEDDDLGGLRLGP [G20R], which protein stability index is on record?
Answer: 3.93

Question: With CQPISFSGFGAEDDDLGGLILGP [G20I] as the variant, how does the protein stability index read?
Answer: 3.2

Question: With CQPISFSGFGAEDDDLGGLHLGP [G20H] as the variant, how does the protein stability index read?
Answer: 2.93

Question: For CQPISFSGFGAEDDDLGGLNLGP [G20N], which protein stability index is on record?
Answer: 3.93

Question: With CQPISFSGFGAEDDDLGGLALGP [G20A] as the variant, how does the protein stability index read?
Answer: 2.29

Question: For CQPISFSGFGAEDDDLGGLELGP [G20E], which protein stability index is on record?
Answer: 2.81

Question: With CQPISFSGFGAEDDDLGGLSLGP [G20S] as the variant, how does the protein stability index read?
Answer: 2.69

Question: With CQPISFSGFGAEDDDLGGLKLGP [G20K] as the variant, how does the protein stability index read?
Answer: 4.31

Question: For CQPISFSGFGAEDDDLGGLGLGK [P23K], which protein stability index is on record?
Answer: 4.66

Question: With CQPISFSGFGAEDDDLGGLGLGI [P23I] as the variant, how does the protein stability index read?
Answer: 2.95

Question: With CQPISFSGFGAEDDDLGGLGLGL [P23L] as the variant, how does the protein stability index read?
Answer: 3.57

Question: Which protein stability index does the source give for CQPISFSGFGAEDDDLGGLGLGW [P23W] here?
Answer: 2.73

Question: Which protein stability index does the source give for CQPISFSGFGAEDDDLGGLGLGR [P23R] here?
Answer: 2.95

Question: For CQPISFSGFGAEDDDLGGLGLGD [P23D], which protein stability index is on record?
Answer: 5.01

Question: For CQPISFSGFGAEDDDLGGLGLGG [P23G], which protein stability index is on record?
Answer: 2.25

Question: With CQPISFSGFGAEDDDLGGLGLGN [P23N] as the variant, how does the protein stability index read?
Answer: 4.72

Question: Which protein stability index does the source give for CQPISFSGFGAEDDDLGGLGLGV [P23V] here?
Answer: 3.45

Question: For CQPISFSGFGAEDDDLGGLGLGY [P23Y], which protein stability index is on record?
Answer: 2.25

Question: For CQPISFSGFGAEDDDLGGLGLGM [P23M], which protein stability index is on record?
Answer: 2.91

Question: For CQPISFSGFGAEDDDLGGLGLGF [P23F], which protein stability index is on record?
Answer: 3.04

Question: With CQPISFSGFGAEDDDLGGLGLGS [P23S] as the variant, how does the protein stability index read?
Answer: 4.5

Question: For CQPISFSGFGAEDDDLGGLGLGH [P23H], which protein stability index is on record?
Answer: 3.99

Question: Which protein stability index does the source give for CQPISFSGFGAEDDDLGGLGLGE [P23E] here?
Answer: 4.96

Question: With CQPISFSGFGAEDDDLGGLGLGQ [P23Q] as the variant, how does the protein stability index read?
Answer: 4.25

Question: With CQPISFSGFGAEDDDLGGLGLGA [P23A] as the variant, how does the protein stability index read?
Answer: 2.17

Question: With CQPISFSGFGAEDDDLGGLGLGC [P23C] as the variant, how does the protein stability index read?
Answer: 3.17

Question: For CQPISFSGFGAEDDDLGGLGLGT [P23T], which protein stability index is on record?
Answer: 3.8

Question: With CQPISFSGFGAEDDDLGGWGLGP [L19W] as the variant, how does the protein stability index read?
Answer: 2.78

Question: With CQPISFSGFGAEDDDLGGYGLGP [L19Y] as the variant, how does the protein stability index read?
Answer: 2.31

Question: With CQPISFSGFGAEDDDLGGQGLGP [L19Q] as the variant, how does the protein stability index read?
Answer: 2.39

Question: For CQPISFSGFGAEDDDLGGSGLGP [L19S], which protein stability index is on record?
Answer: 2.91

Question: With CQPISFSGFGAEDDDLGGTGLGP [L19T] as the variant, how does the protein stability index read?
Answer: 3.02

Question: For CQPISFSGFGAEDDDLGGPGLGP [L19P], which protein stability index is on record?
Answer: 2.7

Question: With CQPISFSGFGAEDDDLGGVGLGP [L19V] as the variant, how does the protein stability index read?
Answer: 2.11

Question: Which protein stability index does the source give for CQPISFSGFGAEDDDLGGLGCGP [L21C] here?
Answer: 3.02

Question: Which protein stability index does the source give for CQPISFSGFGAEDDDLGGLGAGP [L21A] here?
Answer: 4.88

Question: With CQPISFSGFGAEDDDLGGLGHGP [L21H] as the variant, how does the protein stability index read?
Answer: 4.76

Question: With CQPISFSGFGAEDDDLGGLGIGP [L21I] as the variant, how does the protein stability index read?
Answer: 3.46

Question: For CQPISFSGFGAEDDDLGGLGWGP [L21W], which protein stability index is on record?
Answer: 4.11

Question: For CQPISFSGFGAEDDDLGGLGTGP [L21T], which protein stability index is on record?
Answer: 3.94

Question: With CQPISFSGFGAEDDDLGGLGNGP [L21N] as the variant, how does the protein stability index read?
Answer: 4.89

Question: Which protein stability index does the source give for CQPISFSGFGAEDDDLGGLGPGP [L21P] here?
Answer: 5.09

Question: Which protein stability index does the source give for CQPISFSGFGAEDDDLGGLGEGP [L21E] here?
Answer: 5.34

Question: With CQPISFSGFGAEDDDLGGLGKGP [L21K] as the variant, how does the protein stability index read?
Answer: 3.95

Question: With CQPISFSGFGAEDDDLGGLGDGP [L21D] as the variant, how does the protein stability index read?
Answer: 5.19

Question: With CQPISFSGFGAEDDDLGGLGVGP [L21V] as the variant, how does the protein stability index read?
Answer: 3.37

Question: With CQPISFSGFGAEDDDLGGLGSGP [L21S] as the variant, how does the protein stability index read?
Answer: 5.12

Question: Which protein stability index does the source give for CQPISFSGFGAEDDDLGGLGFGP [L21F] here?
Answer: 4

Question: With CQPISFSGFGAEDDDLGGLGRGP [L21R] as the variant, how does the protein stability index read?
Answer: 2.74

Question: Which protein stability index does the source give for CQPISFSGFGAEDDDLGGLGYGP [L21Y] here?
Answer: 4.14

Question: With CQPISFSGFGAEDDDLGGLGQGP [L21Q] as the variant, how does the protein stability index read?
Answer: 4.85

Question: Which protein stability index does the source give for CQPISFSGFGAEDDDLGGLGGGP [L21G] here?
Answer: 4.98

Question: Which protein stability index does the source give for CQPISFSGFGAEDDDLGGLGMGP [L21M] here?
Answer: 3.33

Variants of: B2
Assay: as above
Details: c terminus: a fixed tail appended

Question: Which protein stability index does the source give for RPFDCPVCNKKFAMKHHLTEHMKT [K13A] here?
Answer: 2.85

Question: Which protein stability index does the source give for RPFDCPVCNKKFLMKHHLTEHMKT [K13L] here?
Answer: 2.89

Question: With RPFDCPVCNKKFKMKHHLTPHMKT [E20P] as the variant, how does the protein stability index read?
Answer: 2.11

Question: Which protein stability index does the source give for RPFDCPVCNKKFKMKHHLTIHMKT [E20I] here?
Answer: 2.21

Question: Which protein stability index does the source give for RPFICPVCNKKFKMKHHLTEHMKT [D4I] here?
Answer: 3.62

Question: Which protein stability index does the source give for RPFDCPVCNKKFKGKHHLTEHMKT [M14G] here?
Answer: 2.69

Question: Which protein stability index does the source give for RPNDCPVCNKKFKMKHHLTEHMKT [F3N] here?
Answer: 3.06

Question: Which protein stability index does the source give for RPFDCPVCNKKFKMKHHMTEHMKT [L18M] here?
Answer: 2.19

Question: Which protein stability index does the source give for RPFDCPVCNKKFKMKHRLTEHMKT [H17R] here?
Answer: 2.18

Question: For RPFDCPVCFKKFKMKHHLTEHMKT [N9F], which protein stability index is on record?
Answer: 2.27

Question: With RPFDCPVCNPKFKMKHHLTEHMKT [K10P] as the variant, how does the protein stability index read?
Answer: 2.31

Question: With RPFDCPVCNKKFKMKHHLEEHMKT [T19E] as the variant, how does the protein stability index read?
Answer: 3.39

Question: For RPFDCPVCNKRFKMKHHLTEHMKT [K11R], which protein stability index is on record?
Answer: 2.8

Question: With RPFDCPVCNKIFKMKHHLTEHMKT [K11I] as the variant, how does the protein stability index read?
Answer: 2.36
